In US20160251404A1 (Molecular Partners, published 2016):
Read-outs that look alike come from different tables or passages of the source. Each block holds one binder with its values, some of them ahead of it.

What was measured:
[1] = target: T1, recombinant human HGF (hepatocyte growth factor) (human, UniProt P14210 32-728); test: cell-based or functional assay
[2] = target: T1, recombinant human HGF (hepatocyte …); test: SPR (ProteOn), human HGF immobilized on GLC chip, DARPin injected, PBS 0.005% Tween 20
Description: SPR was measured using a ProteOn instrument (BioRad) and measurement was performed according standard procedures known to the person skilled in the art. The running buffer was PBS, pH 7.4, containing 0.005% Tween 20®. Human HGF was covalently immobilized on a GLC chip (BioRad) to a level of about 5000 resonance units (RU). The interaction of DARPin and HGF was then measured by injecting 200 μl running buffer (PBS containing 0.005% Tween®) containing serial dilutions of DARPins of concentration of […] (on-rate measurement), followed by a running buffer flow for 25 minutes at a constant flow rate of 100 μl/min (off-rate measurement). The signals (i.e. resonance unit (RU) values) of the interspots and a reference injection (i.e. injection of running buffer only) were subtracted from the RU traces obtained after injection of DARPin (double-referencing). From the SPR traces obtained from the on-rate and off-rate measurements the on- and off-rate of the corresponding DARPin HGF interaction can be determined. […] Dissociation constants (Kd) were calculated from the estimated on- and off-rates using standard procedures known to the person skilled in the art. […] As an example, Table 1 summarizes the Kd values for some of the selected DARPins.

[3] = target: T1, recombinant human HGF (hepatocyte …); test: cell-based or functional assay; remark: listed apart in the source
[4] = target: T1, recombinant human HGF (hepatocyte …); test: receptor competition ELISA: DARPin premixed with human HGF, binding of HGF to coated c-Met Fc chimera detected with anti-HGF antibody
Description: The potency of anti-HGF DARPins to inhibit the binding of human HGF to its receptor c-Met was determined in a receptor competition ELISA. c-Met (Fc chimera; RnD systems, USA, 358-MT-100/CF) was pre-coated on a microplate. DARPins and HGF were premixed in PBSTC and incubated at room temperature for 0.5 hours. These preincubation mixtures were then transferred into the with c-Met precoated wells and any HGF that was not blocked by the DARPins was bound by the immobilized receptor. After washing away any unbound substances, an polyclonal antibody specific for HGF (RnD systems, USA, AF-294-NA) was added to the wells. After washing away any unbound substances, an horse radish peroxidase conjugated antibody (Novus Biologicals, USA, NB7357) binding to the polyclonal antibody specific for HGF was added to the wells. Following a wash to remove any unbound antibody-enzyme reagent, a substrate solution (Roche, Switzerland, 11484281001) was added to the wells and color was developing in proportion to the amount of HGF bound. The color development was stopped and the intensity of the color was measured at 405 nm. […] Example titration curves are given for a set of DARPins in FIG. 5. IC₅₀ values were calculated from such titration curves obtained as described above using standard procedures known to the person skilled in the art.

[5] = target: T1, recombinant human HGF (hepatocyte …); test: cell-based or functional assay; remark: listed apart in the source

T1 sequence (P14210 32-728 limits assumed): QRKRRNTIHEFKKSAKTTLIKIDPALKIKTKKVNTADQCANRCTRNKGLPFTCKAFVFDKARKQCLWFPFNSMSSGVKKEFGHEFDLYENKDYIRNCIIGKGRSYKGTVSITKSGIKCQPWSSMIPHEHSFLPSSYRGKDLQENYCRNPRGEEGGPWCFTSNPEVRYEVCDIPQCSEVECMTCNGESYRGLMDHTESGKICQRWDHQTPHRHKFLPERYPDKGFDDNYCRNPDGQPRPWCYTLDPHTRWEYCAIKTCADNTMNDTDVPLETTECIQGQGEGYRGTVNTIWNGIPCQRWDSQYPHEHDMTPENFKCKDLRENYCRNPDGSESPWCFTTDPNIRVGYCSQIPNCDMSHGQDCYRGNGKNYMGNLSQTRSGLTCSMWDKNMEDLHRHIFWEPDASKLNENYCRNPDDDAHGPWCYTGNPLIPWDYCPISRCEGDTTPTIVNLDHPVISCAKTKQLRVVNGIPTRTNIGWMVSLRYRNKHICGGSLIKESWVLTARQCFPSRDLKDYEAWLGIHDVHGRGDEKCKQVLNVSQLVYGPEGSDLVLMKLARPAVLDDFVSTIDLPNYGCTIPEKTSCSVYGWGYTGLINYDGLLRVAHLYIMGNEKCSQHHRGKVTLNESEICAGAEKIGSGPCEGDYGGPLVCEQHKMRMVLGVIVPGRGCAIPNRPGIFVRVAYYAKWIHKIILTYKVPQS

B1: DARPin #33 (designed binder)
chain: MRGSHHHHHHGSDLGKKLLEAARAGQDDEVRILMANGADVNAHDYSGFTPLHLAAYYGHLEIVEVLLKHGADVNAFDDWGHTPLHLAARYGHLEIVEVLLKYGADVNAEDTEGYTPLHLAAMDGHLEIVEVLLKNGADVNAQDKFGKTAFDISIDNGNEDLAEILQKLN
- % inhibition of HGF stimulated c-Met phosphorylation in A549 cells [1]: 100%
- IC50 of HGF stimulated c-Met phosphorylation in A549 cells [1]: 0.2 nM
- Kd [2]: 0.148 nM
- IC50 of U87 cell proliferation (BrdU) [3]: 137 nM

B2: DARPin #42 (designed binder)
chain: MRGSHHHHHHGSDLGKKLLEAARAGQDDEVRILMANGADVNAKYEDGLTPLHLAAFYGHLEIVEVLLKHGADVNATDAWGHTPLHLAAHYGHLEIVEVLLKYGADVNAIDTLGYTPLHLAANFGHLEIVEVLLKNGADVNAQDKFGKTAFDISIDNGNEDLAEILQKLN
- % inhibition of HGF stimulated c-Met phosphorylation in A549 cells [1]: 98%
- IC50 of HGF stimulated c-Met phosphorylation in A549 cells [1]: 0.32 nM
- Kd [2]: 0.084 nM
- IC50 of U87 cell proliferation (BrdU) [3]: 82 nM

B3: DARPin #41 (designed binder)
chain: MRGSHHHHHHGSDLGKKLLEAARAGQDDEVRILMANGADVNAKYEDGLTPLHLAAFYGHLEIVEVLLRHGADVNATDAWGHTPLHLAAYLGHLEIVEVLLKYGADVNAEDTEGYTPLHLAAMDGHLEIIEVLLKHGADVNAQDKFGKTAFDISIDNGNEDLAEILQKLN
- % inhibition of HGF stimulated c-Met phosphorylation in A549 cells [1]: 99%
- IC50 of HGF stimulated c-Met phosphorylation in A549 cells [1]: 0.13 nM
- IC50 of U87 cell proliferation (BrdU) [3]: 113 nM

B4: DARPin #43 (designed binder)
chain: MRGSHHHHHHGSDLGKKLLEAARAGQDDEVRILMANGADVNAKYEDGLTPLHLAAFYGHLEIVEVLLKHGADVNATDAWGHTPLHLAAYYGHLEIVEVLLKYGADVNTHDKEGMTALHLAALTGHLEIVEVLLKNGADVNAQDKFGKTAFDISIDNGNEDLAEILQKLN
- IC50 [4]: 1.36 nM
- % inhibition of HGF stimulated c-Met phosphorylation in A549 cells [1]: 101%
- IC50 of HGF stimulated c-Met phosphorylation in A549 cells [1]: 0.16 nM
- Kd [2]: 0.025 nM
- IC50 of U87 cell proliferation (BrdU) [3]: 71 nM
- IC50 of U87 cell proliferation (BrdU) [5]: 72 nM

B5: DARPin #48 (designed binder)
chain: MRGSHHHHHHGSDLGKKLLEAARAGQDDEVRILMANGADVNAKDRFGDTPLHLAADIGHLKIVEVLLKHGADVNAEDWFGNTPLHLAASMGHLEIVEVLLKYGADVNAMDDYGNTPLHLAANTGHLEIVEVLLKHGADVNAQDKFGKTAFDISIDNGNEDLAEILQKLN
- IC50 [4]: 0.91 nM
- % inhibition of HGF stimulated c-Met phosphorylation in A549 cells [1]: 95%
- IC50 of HGF stimulated c-Met phosphorylation in A549 cells [1]: 0.1 nM
- Kd [2]: 0.016 nM

B6: DARPin #51 (designed binder)
chain: MRGSHHHHHHGSDLGKKLLEAARAGQDDEVRILLKAGADVNAKDRYGDTPLHLAADIGHLEIVEVLLKAGADVNAEDYFGNTPLHLAASYGHLEIVEVLLKAGADVNAKDDYGNTPLHLAANTGHLEIVEVLLKAGADVNAQDKSGKTPADLAADAGHEDIAEVLQKLN
- IC50 [4]: 0.62 nM
- % inhibition of HGF stimulated c-Met phosphorylation in A549 cells [1]: 81%
- IC50 of HGF stimulated c-Met phosphorylation in A549 cells [1]: 0.01 nM
- Kd [2]: 0.051 nM
- IC50 of U87 cell proliferation (BrdU) [3]: 116 nM

B7: DARPin #56 (designed binder)
chain: MRGSHHHHHHGSDLGKKLLEAARAGQDDEVRILMANGADVNANDFLGLTPLHLAASTGHLEIVEVLLKYGADVNAIDAYGHTPLHLAANNGHLEIVEVLLKYGADVNAIDHFGYTPLHLAAMFGHLEIVEVLLKNGADVNAQDKFGKTAFDISIDNGNEDLAEILQKLN
- % inhibition of HGF stimulated c-Met phosphorylation in A549 cells [1]: 72%
- IC50 of HGF stimulated c-Met phosphorylation in A549 cells [1]: 0.53 nM
- Kd [2]: 0.736 nM

B13: DARPin #37 (designed binder)
chain: MRGSHHHHHHGSDLGKKLLEAARAGQDDEVRILMANGADVNATDLTGFTPLHLAAYYGHLEIVEVLLKYGADVNADDRYGLTPLHLAANTGHLEIVEVLLKNGADVNASDSVGTTLLHLAAYIGHPEIVEVLLKYGADVNAQDKFGKTAFDISIDNGNEDLAEILQKLN
- IC50 [4]: 1.33 nM
- % inhibition of HGF stimulated c-Met phosphorylation in A549 cells [1]: 95%
- IC50 of HGF stimulated c-Met phosphorylation in A549 cells [1]: 0.07 nM
- Kd [2]: 0.011 nM
- IC50 of U87 cell proliferation (BrdU) [3]: 400 nM

B14: DARPin #38 (designed binder)
chain: MRGSHHHHHHGSDLGKKLLEAARAGQDDEVRILMANGADVNATDANGFTPLHLAAFYGHLEIVEVLLKYGADVNAYDNFGLTPLHLAASYGHLEIVEVLLKNGADVYAQDKFGKTAFDISIDNGNEDLAEILQKLN
- % inhibition of HGF stimulated c-Met phosphorylation in A549 cells [1]: 88%
- IC50 of HGF stimulated c-Met phosphorylation in A549 cells [1]: 2.59 nM
- Kd [2]: 1.6 nM

Second part, the binder after the results:

- IC50 [4]: 1.71 nM
- % inhibition of HGF stimulated c-Met phosphorylation in A549 cells [1]: 100%
- IC50 of HGF stimulated c-Met phosphorylation in A549 cells [1]: 1.72 nM
- Kd [2]: 16.6 nM
- IC50 of U87 cell proliferation (BrdU) [3]: 730 nM
B8: DARPin #57 (designed binder)
chain: MRGSHHHHHHGSDLGKKLLEAARAGQDDEVRILMANGADVNAHDYLGLTPLHLAASDGHLEIVEVLLKHGADVNAYDYNGLTPLHLAANNGHLEIVEVLLKYGADVNAFDVAGYTPLHLAAYFGHLEIVEVLLKYGADVNAQDKFGKTAFDISIDNGNEDLAEILQKLN

- % inhibition of HGF stimulated c-Met phosphorylation in A549 cells [1]: 89%
- IC50 of HGF stimulated c-Met phosphorylation in A549 cells [1]: 1.63 nM
- Kd [2]: 0.578 nM
B9: DARPin #58 (designed binder)
chain: MRGSHHHHHHGSDLGKKLLEAARAGQDDEVRILMANGADVNAHDYVGLTPLHLAASIGHLEIVEVLLKYGADVNASDYNGFTPLYLAANNGHLEIVEVLLKNGADVNATDSFGYTPLHLAAHYGHLEIVEVLLKNGADVNAQDKFGKTAFDISIDNGNEDLAEILQKLN

- % inhibition of HGF stimulated c-Met phosphorylation in A549 cells [1]: 100%
- IC50 of HGF stimulated c-Met phosphorylation in A549 cells [1]: 0.85 nM
- Kd [2]: 0.528 nM
- IC50 of U87 cell proliferation (BrdU) [3]: 3280 nM
B10: DARPin #59 (designed binder)
chain: MRGSHHHHHHGSDLGKKLLEAARAGQDDEVRILMANGADVNADDSLGLTPLHLAAASGHLEIVEVLLKNGADVNAVDQNSFTPLYLAANNGHLEIVEVLLKNGADVNAFDWHGTTPLHLAAMFGHLEIVEVLLKNGADVNAQDKFGKTAFDISIDNGNEDLAEILQKLN

- IC50 [4]: 0.95 nM
- % inhibition of HGF stimulated c-Met phosphorylation in A549 cells [1]: 94%
- IC50 of HGF stimulated c-Met phosphorylation in A549 cells [1]: 0.05 nM
- Kd [2]: 0.026 nM
- IC50 of U87 cell proliferation (BrdU) [3]: 78 nM
B11: DARPin #60 (designed binder)
chain: MRGSHHHHHHGSDLGMKLLEAARAGQDDEVRILMANGADVNAHDTWGLTPLHLAAFHGHQEIVEVLLKHGADVNAQDFYGKTPLHLAALRGHLEIVEVLLKYGADVNAQDQFGKTAFDISIDNGNEDLAEILQKLN

- % inhibition of HGF stimulated c-Met phosphorylation in A549 cells [1]: 82%
- IC50 of HGF stimulated c-Met phosphorylation in A549 cells [1]: 0.39 nM
- Kd [2]: 0.16 nM
B12: DARPin #61 (designed binder)
chain: MRGSHHHHHHGSDLGKKLLEAARAGQDDEVRILMANGADVNAEDYLGHTPLHLAASTGHLEIVEVLLKYGADVNAKDRNGLTPLYLAANNGHLEIVEDLLKYGADVNADDDNGTTPLHLAAIFGHLEIVEVLLKYGADVNAQDKFGKTAFDISIDNGNEDLAEILQKLN
